Target: angiotensin II-bound mouse angiotensin II type 1 receptor F117W Δ324 (mouse | human)
Experiment: cross-linking + other: high-mass MALDI-MS; angiotensin II-bound AT1R (angII-AT1R), 5 µM, mixed with partner protein at various concentrations, 1 h at room temperature, BS(PEG)9 cross-linking, 1.0 µM β-Gal as internal standard; 20 mM Hepes pH 7.5, 40 mM NaCl, 0.01% LMNG; Ka = 1/Kd

Ka: 480000 M⁻¹
B1: mini-Gq (domain or fragment)
chain: GIEKQLQKDKQVYRATHRLLLLGADNSGKSTIVKQMRILHGGSGGSGGTSGIFETKFQVDKVNFHMFDVGGQRDERRKWIQCFNDVTAIIFVVDSSDYNRLQEALNDFKSIWNNRWLRTISVILFLNKQDLLAEKVLAGKSKIEDYFPEFARYTTPEDATPEPGEDPRVTRAKYFIRDEFLRISTASGDGRHYCYPHFTCAVDTENARRIFNDCKDIILQMNLREYNLV

From article PMC8346855
